Key:
[1] = biological target: human serum albumin (HSA) (Homo sapiens, UniProt P02768); assay: Plasma protein binding (B50), ultrafiltration, HSA; type: in vitro ADME
Experimental: (§1) A detailed experimental procedure is provided in the Supplementary Material. […] Briefly, protein solutions (maximum concentration: […] Samples were briefly vortexed and incubated for 30 min at 37 °C. […] The filter units were then removed from the centrifugal tubes and washed twice with 300 µL PBS to recover the protein fraction. The activity in the filtrate, filter and protein fraction were then quantified using a γ-counter. […] The percentages of radioligand bound to the respective proteins are represented as means ± standard deviation (SD) of three independent experiments.

[2] = biological target: PSMA (Homo sapiens, UniProt Q04609); assay: Radioguided surgery (RGS) with gamma probe, ex vivo fluorescence microscopy; type: in vivo; parameters: Five patients with a diagnosis of initial (n = 4) or biochemical recurrence of (n = 1) histologically proven prostate cancer; from tissue; host or cells: prostate cancer patients: primary tumour, lymph nodes, resected tissue sections
Experimental: Radioguided open surgery was performed the day after tracer injection by an experienced urologic surgeon (DW; more than 20 years of surgical experience) in collaboration with a nuclear medicine physician. Using a conventional gamma probe (C-Trak®, SanuC GmbH, Jahnsdorf, Germany), suspicious lymph nodes (defined as spots with signal-to-background ratios ≥ 2) were excised separately followed by pelvic lymph node dissection. […] Fresh frozen tissue sections were prepared using a standard cryosectioning protocol with 10–20 μm sections mounted for fluorescence imaging. These slides were stored on dry ice prior to fluorescence microscopy to preserve tissue integrity. Fluorescence microscopy of patient samples was performed using an Axioscan 7 slide scanner (Zeiss) equipped with a Colibri 7 LED light source and a 20×/0.8 NA Plan-Apochromat objective. Cy5 fluorescence was acquired using a filter set with excitation 640/30 nm, dichroic mirror 660 nm, and emission 690/50 nm. Image acquisition and analysis were performed using ZEN Blue 3.5 software (Zeiss). For immunohistochemical analysis, adjacent formalin-fixed, paraffin-embedded tissue sections were cut at 2 μm thickness and stained for PSMA (clone EP192 BioSB, BIOO Scientific) using a Ventana Benchmark automated platform (Bio SB, Santa Barbara, CA, USA). Conventional hematoxylin and eosin (H&E) and immunohistochemical (for PSMA) staining was performed on corresponding tissue sections to enable morphologic correlation and verification of target expression, respectively. For further information on immunhistochemical staining please refer to the Supplementary Material.

[3] = human, in vivo
Experimental: [^99mTc]Tc-PSMA-HSG scans were performed using a GE Discovery NM/CT 670 Pro (GE Healthcare, Milwaukee, USA; n = 4) or Siemens Symbia T2 (Siemens Healthineers, Erlangen, Germany; n = 1) system. For dosimetry, planar dynamic whole body scans were performed at 5 min and 1 h after injection with a bed speed of 30 cm/min; and at 3–4 h and 20 h after injection with a speed of 12 cm/min. At 3–4 h and 20 h after injection additional SPECT/CT imaging was acquired. Attenuation maps were generated on the basis of low-dose CT. For a detailed protocol of imaging parameters and the dosimetry protocol please refer to the Supplementary Material.
The planar and SPECT/CT images per time point were processed using syngo.via (Siemens Healthineers, Erlangen, Germany). Organs were segmented on the accompanying CT of the SPECT/CT of each imaging time point to avoid errors due to misalignment during image registration. Segmented organs included gallbladder, muscle, heart, kidneys, liver, lungs, pancreas, spleen, stomach, and urinary bladder on the SPECT/CT. For bone marrow dosimetry, spherical volumes of interest (VOIs) were placed in lumbar vertebrae L2 to L4 [8]. Salivary glands and their background were manually segmented on the anterior view of the planar whole-body scans. Region-wise image statistics were extracted into spreadsheets including administered activity and the time interval between administration and imaging start.
Count statistics were converted into units of Becquerel by using the decay-corrected reference activity source that was within the field of view (FOV) of each imaging acquisition. Percentage injected activities per time were entered into MIRDfit v1.01 for fitting the time-activity data. The trapezoidal method with zero activity at time zero and physical decay extrapolation after the last time point was used for the data with only two SPECT acquisitions and monoexponential fitting was used for the three SPECT acquisitions and if the fit R² was greater than 0.97. The salivary glands with available data from four planar images were fitted biexponentially if R² was greater than 0.97. The bladder was modelled in MIRDfit assuming effective half-life, two time points and a 3 h voiding interval. The resulting time integrated activity coefficients (TIACs, unit of hours) were entered in MIRDcalc v1.22 [10] for dosimetry calculations and patient-individual organ masses for kidneys, liver, pancreas, spleen and estimate for red marrow were used for S-value adjustments.

[4] = tested on: human serum; assay: Plasma protein binding (B50), ultrafiltration, human serum; type: in vitro ADME
Experimental: as §1

[5] = tested on: mouse serum; assay: Plasma protein binding (B50), ultrafiltration, mouse serum; type: in vitro ADME
Experimental: as §1

[6] = exploratory cohort, five patients

Sequence of PSMA (Q04609 whole entry): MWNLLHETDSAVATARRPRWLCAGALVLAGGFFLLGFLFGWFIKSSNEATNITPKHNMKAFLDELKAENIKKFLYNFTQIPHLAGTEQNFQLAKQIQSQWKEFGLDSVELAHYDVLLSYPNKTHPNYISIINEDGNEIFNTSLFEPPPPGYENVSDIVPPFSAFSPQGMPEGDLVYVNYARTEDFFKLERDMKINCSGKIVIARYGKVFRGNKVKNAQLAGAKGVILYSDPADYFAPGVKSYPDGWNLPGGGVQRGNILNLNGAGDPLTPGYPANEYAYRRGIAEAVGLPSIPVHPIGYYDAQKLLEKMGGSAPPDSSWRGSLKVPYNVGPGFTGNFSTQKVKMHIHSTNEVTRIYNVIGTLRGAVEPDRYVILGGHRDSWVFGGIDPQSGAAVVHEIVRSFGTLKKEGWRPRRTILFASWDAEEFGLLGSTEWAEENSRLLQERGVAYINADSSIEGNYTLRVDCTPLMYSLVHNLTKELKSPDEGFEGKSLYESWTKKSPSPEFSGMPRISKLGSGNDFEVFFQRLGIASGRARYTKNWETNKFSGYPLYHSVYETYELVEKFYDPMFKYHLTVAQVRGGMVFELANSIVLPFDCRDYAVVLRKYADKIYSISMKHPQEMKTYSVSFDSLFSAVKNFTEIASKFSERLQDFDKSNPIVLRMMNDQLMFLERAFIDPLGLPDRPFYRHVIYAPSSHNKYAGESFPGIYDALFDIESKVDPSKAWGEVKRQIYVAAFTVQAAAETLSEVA
Sequence of human serum albumin (HSA) (P02768 25-609): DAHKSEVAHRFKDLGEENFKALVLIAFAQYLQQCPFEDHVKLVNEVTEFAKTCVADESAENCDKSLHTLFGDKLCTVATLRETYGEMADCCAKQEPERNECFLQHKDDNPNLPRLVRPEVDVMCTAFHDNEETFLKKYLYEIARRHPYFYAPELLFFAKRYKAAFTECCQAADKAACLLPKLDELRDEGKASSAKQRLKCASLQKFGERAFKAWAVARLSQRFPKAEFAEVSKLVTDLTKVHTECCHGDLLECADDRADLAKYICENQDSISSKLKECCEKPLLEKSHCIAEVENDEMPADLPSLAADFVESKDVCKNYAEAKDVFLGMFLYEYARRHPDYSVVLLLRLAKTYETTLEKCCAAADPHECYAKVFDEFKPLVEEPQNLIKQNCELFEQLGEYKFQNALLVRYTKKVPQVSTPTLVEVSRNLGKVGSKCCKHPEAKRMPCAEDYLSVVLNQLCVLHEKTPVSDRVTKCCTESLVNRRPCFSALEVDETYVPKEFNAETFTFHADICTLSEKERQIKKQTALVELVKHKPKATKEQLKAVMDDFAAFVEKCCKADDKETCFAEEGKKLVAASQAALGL

RGS, ex vivo activity, left external iliac LN ([2]; Patient #1): 190 cps
RGS, ex vivo activity, right external iliac LN ([2]; Patient #1): 230 cps
RGS, ex vivo activity, right iliac LN (2 adjacent LNs) ([2]; Patient #4): 20 cps
RGS, ex vivo activity, right iliac LN (first listed) ([2]; Patient #4): 50 cps
RGS, ex vivo activity, right iliac LN (last listed) ([2]; Patient #4): 15 cps
RGS, in vivo activity measurements ([2]; Patient #4, 350 µg): No detection of tracer-positive lesions
specificity of uptake in resected lymph nodes, fluorescence microscopy ([2]; Patient #4, 350 µg): highly PSMA-specific
NPV of RGS [2, 6]: 100%
PPV of RGS [2, 6]: 100%
sensitivity of RGS (abstract: selectivity) [2, 6]: 100%
specificity of RGS [2, 6]: 100%
lymph node metastases in tracer-avid lesions, intraoperative gamma detection ([2]; in vivo): 6/6
true negative lymph nodes identified by RGS ([2]; patient sub-cohort): 53/53
true positive lymph nodes identified by RGS ([2]; patient sub-cohort): 4/4
Compound: C[N+]1=C(/C=C/C=C/C=C2/N(CCCCCC(=O)NCCCC[C@@H](NC(=O)[C@@H](CO)NC(=O)[C@@H](CO)NC(=O)[C@@H](CO)NC(=O)CS)C(=O)N[C@H](Cc3ccc(O)cc3)C(=O)N[C@H](Cc3ccc4ccccc4c3)C(=O)N[C@H](CCCCNC(=O)CCCCCCC(=O)NCCCC[C@H](NC(=O)N[C@@H](CCC(=O)O)C(=O)O)C(=O)O)C(=O)O)c3ccc(S(=O)(=O)[O-])cc3C2(C)C)C(C)(C)c2cc(S(=O)(=O)O)ccc21 [[^99mTc]Tc-PSMA-HSG, metal not drawn]
B50 HSA [1]: 273 ± 36
RGS, in vivo activity measurements ([2]; Patient #1, 53 µg): intraoperative detection feasible; after resection no further tracer accumulation detected
RGS, in and ex vivo activity measurements ([2]; Patient #2, 53 µg): In and ex vivo activity measurements: No positive LN
RGS, in and ex vivo activity measurements ([2]; Patient #3, 53 µg): In and ex vivo activity measurements: No positive LN
RGS, in and ex vivo activity measurements ([2]; Patient #5, 250 µg): In and ex vivo activity measurements: No positive LN
Absorbed dose coefficient of salivary glands from planar images [3]: 0.007 ± 0.004 mGy/MBq
Absorbed dose coefficient of salivary glands from planar images, max [3]: 0.013 mGy/MBq
Absorbed dose coefficient of salivary glands from planar images, min [3]: 0.005 mGy/MBq
Absorbed dose, Brain [3]: 0.000 mGy/MBq
Absorbed dose, ET1 airway basal cells [3]: 0.000 mGy/MBq
Absorbed dose, Eye lens [3]: 0.000 mGy/MBq
Absorbed dose, Lymph nodes - extrathoracic [3]: 0.001 mGy/MBq
Absorbed dose, Tonsils [3]: 0.001 mGy/MBq
Organ TIAC, Bone marrow - red (active) [3]: 0.412 h
Organ TIAC, Gallbladder content [3]: 0.015 h
Organ TIAC, Heart content [3]: 0.164 h
Organ TIAC, Lungs [3]: 0.360 h
Organ TIAC, Muscle [3]: 1.230 h
Organ TIAC, Pancreas [3]: 0.035 h
Organ TIAC, Spleen [3]: 0.096 h
Organ TIAC, Stomach content [3]: 0.090 h
effective dose for a typically injected activity [3]: 7.9 mSv
B50 HS [4]: 220 ± 35
B50 MS [5]: 142 ± 22

Reference: paper PMC13013135, “[^99mTc]Tc-PSMA-HSG for PSMA-targeted Hybrid Surgical Guidance: a new addition to the PSMA-I&S/I&T family” (European Journal of Nuclear Medicine and Molecular Imaging, 2025)
